Read-outs that look alike come from different tables or passages of the source.
B1: H1H21234N-N297Q-L5-PIII-1 (antibody, V domains shown)
VH: QVQLQESGPGLVKPSETLSLTCTVTGGSISRNYWSWIRQPPGKGLEWIGYIYYSGSIDYNPSLKSRVTISVDTSKNQFSLKLSSMTAADTAVYYCARDRWNWKYGMDVWGQGTTVIVSS
VL: EIVLTQSPGTLSLSPGERATLSCRASQTVRNNYLAWYHQKPGQAPRLLIYGASSRATGIPDRFSGSGSGTDFTLTISRLEPEDFTVYYCHQYGNSPWTFGQGTKMEIKR
modifications: heavy-chain constant region (not part of this entry): N297Q (EU); linker-payload L5-PIII-1 (DIBAC-suc-SGGG-PIII-1) clicked onto azido-PEG3-amine on glutamines; DAR 4
B2: H1H21234N-N297Q-L14-PII-1 (antibody, V domains shown)
VH: B1 VH
VL: B1 VL
modifications: heavy-chain constant region (not part of this entry): N297Q (EU); linker-payload L14-PII-1 (DIBAC-GGFG-NHCH2-Bud) conjugated as in Example 5; four DAR ADC
B3: H1H21234N-N297Q-L6-PII-9 (antibody, V domains shown)
VH: B1 VH
VL: B1 VL
modifications: heavy-chain constant region (not part of this entry): N297Q (EU); linker-payload L6-PII-9 (DIBAC-suc-PEG4-PII-9, payload budesonide) conjugated as in Example 5; four DAR ADC
B4: H1H21234N-N297Q-L13-PII-1 (antibody, V domains shown)
VH: B1 VH
VL: B1 VL
modifications: heavy-chain constant region (not part of this entry): N297Q (EU); linker-payload L13-PII-1 (COT-GGGG-NHCH2-Bud) conjugated as in Example 5; four DAR ADC
B5: H1H21234N-N297Q-L2-PIII-1 (antibody, V domains shown)
VH: B1 VH
VL: B1 VL
modifications: heavy-chain constant region (not part of this entry): N297Q (EU); linker-payload L2-PIII-1 (DIBAC-suc-PEG4-Glu-vcPAB-PIII-1) clicked onto azido-PEG3-amine on glutamines; DAR 4

Tests used:
[1] = target: T1, human macrophage scavenger receptor 1 (MSR1) (human, UniProt P21757 1-451); assay: cell-based or functional assay
T1 sequence (looked up): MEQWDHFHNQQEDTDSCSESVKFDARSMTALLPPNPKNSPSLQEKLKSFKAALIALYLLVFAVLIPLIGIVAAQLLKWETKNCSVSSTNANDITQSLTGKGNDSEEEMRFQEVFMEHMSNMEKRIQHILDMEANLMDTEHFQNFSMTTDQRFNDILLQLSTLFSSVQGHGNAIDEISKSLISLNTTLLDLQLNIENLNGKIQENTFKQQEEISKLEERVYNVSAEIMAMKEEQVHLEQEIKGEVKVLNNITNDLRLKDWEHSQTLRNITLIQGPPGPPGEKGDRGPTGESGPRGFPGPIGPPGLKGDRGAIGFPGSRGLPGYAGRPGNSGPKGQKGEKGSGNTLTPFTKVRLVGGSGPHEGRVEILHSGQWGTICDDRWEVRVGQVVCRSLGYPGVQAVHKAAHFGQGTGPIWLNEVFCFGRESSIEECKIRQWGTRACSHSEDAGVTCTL

[2] = target: T2, GR (Homo sapiens, UniProt P04150); assay: GR luciferase reporter assay in HEK293/GRLuc cells; assay type: cell-based
T2 construct: host or cells: HEK293 (HEK293/GRLuc; HEK293/GRLuc/MSR1 additionally transduced with human MSR1)
T2 sequence (P04150 524-758 limits assumed): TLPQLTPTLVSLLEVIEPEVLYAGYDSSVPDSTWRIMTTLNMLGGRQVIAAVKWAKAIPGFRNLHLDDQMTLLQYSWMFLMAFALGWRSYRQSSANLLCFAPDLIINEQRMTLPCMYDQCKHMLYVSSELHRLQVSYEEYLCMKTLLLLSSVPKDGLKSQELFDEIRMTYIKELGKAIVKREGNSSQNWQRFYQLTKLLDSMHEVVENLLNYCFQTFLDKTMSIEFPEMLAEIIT
Description: Activity of anti-MSR1 ncADCs were tested using an MSR1 ADC steroid responsive luciferase reporter assay. To generate the assay cell line, HEK293 cells were co-transfected with the pBind-GR (Promega, Cat #E158A) and pGL4.35 [Luc2P/9xGAL4UAS/Hygro] (Promega, Cat #E137A) vectors. The pBind-GR vector expresses a fusion protein consisting of the GR ligand binding and the yeast Gal4DNA-binding domain, which binds to the Gal4 upstream activation sequence (UAS) in the luciferase expression vector, that can induce luciferase expression following GR agonist binding. The cells were selected for at least 2 weeks in G418+hygromycin and the resulting cell line is referred to as HEK293/GRLuc. HEK293/GRLuc cells were then transduced with a human MSR1 lentiviral expression vector and 48 hours later cells were sorted for MSR1 positive cells. The resulting cell line is referred to as HEK293/GRLuc/MSR1.
Three-fold serial dilutions of ncADCs in assay buffer were added to the cells for 48 hours. The last well in the plate served as blank control containing only the assay media and was plotted as a continuation of the 3-fold serial dilution. Luciferase activity was determined using the One-Glo™ reagent (Promega, Cat #E6130). Relative light units (RLUs) were measured on an Envision luminometer (PerkinElmer) and EC50 values were determined using a four-parameter logistic equation over a 10-point dose response curve (GraphPad Prism). The signal to noise (S/N) was determined by taking the ratio of the highest RLU on the dose response curve to the RLU in the untreated wells.
To test the activity of GR agonist payloads disclosed herein, a cell-based GR responsive luciferase reporter assay was developed as described above.
Three-fold serial dilutions of free payloads were prepared in 100% DMSO, transferred to fresh assay media, and added to the cells for 48 hours. […] The last well in the plate served as blank control containing only the assay media and 0.2% DMSO (untreated well) and was plotted as a continuation of the 3-fold serial dilution. Luciferase activity was determined using the One-Glo™ reagent (Promega, Cat #E6130). Relative light units (RLUs) were measured on an Envision luminometer (PerkinElmer) and EC50 values were determined using a four-parameter logistic equation over a 10-point dose response curve (GraphPad Prism). The signal to noise (S/N) was determined by taking the ratio of the highest RLU on the dose response curve to the RLU in the untreated wells.

[3] = target: T1, human macrophage scavenger receptor 1 …; assay: cell-based or functional assay; remark: listed apart in the source
[4] = Table 8, ncADCs, highest RLU / RLU of untreated wells

Molecule | EC50, GR luciferase reporter activity in HEK293/GRLuc/MSR1 cells [1] | S/N (highest RLU / RLU in untreated wells), HEK293/GRLuc/MSR1 cells [1] | EC50 ([2]; Table 8, ncADCs, 48 hours) | S/N [2, 4] | EC50, GR luciferase reporter activity in HEK293/GRLuc/MSR1 cells [3] | S/N, HEK293/GRLuc/MSR1 cells [3] | EC50 ([2]; Table 11, ADCs) | S/N ([2]; Table 11, ADCs)
B1 | 0.138 nM | 125 | 41.7 nM | 13.2 |  |  |  | 
B2 |  |  |  |  | 0.636 nM | 120 | > 100 nM | 16.8
B3 |  |  |  |  | 3.96 nM | 150 | > 100 nM | 15.8
B4 |  |  |  |  | 2.33 nM | 226 | > 100 nM | 3.1
B5 | 0.184 nM | 96.4 | 52.7 nM | 6.0 |  |  |  | 

Source: patent US20230119539A1, “TRACELESS LINKERS AND PROTEIN-CONJUGATES THEREOF” (Regeneron Pharmaceuticals, Inc., priority 2019, published 2023)
